From US20160136234A1
Where a chain is given by its changes, count along the chain named.

Experiments:
Test in all cases: cell-based or functional assay
ALK (h) (human) = ALK (h) (human) (UniProt Q9UM73)
AMPKα1 (h) (human) = AMPKα1 (h) (human) (UniProt Q13131)
Abl (Q252H) (h) (human) = Abl (Q252H) (h) (human) (UniProt P00519)
Abl(Y253F) (h) (human) = Abl(Y253F) (h) (human) (UniProt P00519)
CHK2(R145W) (h) (human) = CHK2(R145W) (h) (human) (UniProt O96017)
CaMKIIβ (h) (human) = CaMKIIβ (h) (human) (UniProt Q13554)
Flt4 (h) (human) = Flt4 (h) (human) (UniProt P35916)
JNK1α1 (h) (human) = JNK1α1 (h) (human) (UniProt P45983)
JNK3 (h) (human) = JNK3 (h) (human) (UniProt P53779)
PKCε (h) (human) = PKCε (h) (human) (UniProt Q02156)
PKCζ (h) (human) = target: T1, PKCζ (h) (human) (UniProt Q05513)
T1 sequence (looked up): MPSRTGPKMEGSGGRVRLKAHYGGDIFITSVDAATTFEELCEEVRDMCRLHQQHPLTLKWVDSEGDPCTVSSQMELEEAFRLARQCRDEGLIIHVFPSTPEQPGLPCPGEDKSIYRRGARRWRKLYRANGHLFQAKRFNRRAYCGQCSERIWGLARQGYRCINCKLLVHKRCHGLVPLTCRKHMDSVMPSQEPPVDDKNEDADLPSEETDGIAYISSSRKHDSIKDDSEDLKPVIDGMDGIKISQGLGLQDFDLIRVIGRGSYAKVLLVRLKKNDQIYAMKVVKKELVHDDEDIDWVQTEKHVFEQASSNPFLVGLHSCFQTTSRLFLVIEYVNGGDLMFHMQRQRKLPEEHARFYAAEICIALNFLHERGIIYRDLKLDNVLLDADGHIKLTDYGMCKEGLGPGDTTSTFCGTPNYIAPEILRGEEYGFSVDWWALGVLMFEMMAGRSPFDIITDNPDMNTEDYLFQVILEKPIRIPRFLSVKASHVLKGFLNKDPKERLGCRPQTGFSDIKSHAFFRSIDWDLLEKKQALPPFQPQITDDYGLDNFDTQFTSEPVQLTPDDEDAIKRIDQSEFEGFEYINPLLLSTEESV

PKG1β (h) (human) = target: T2, PKG1β (h) (human) (UniProt Q13976)
T2 sequence (looked up): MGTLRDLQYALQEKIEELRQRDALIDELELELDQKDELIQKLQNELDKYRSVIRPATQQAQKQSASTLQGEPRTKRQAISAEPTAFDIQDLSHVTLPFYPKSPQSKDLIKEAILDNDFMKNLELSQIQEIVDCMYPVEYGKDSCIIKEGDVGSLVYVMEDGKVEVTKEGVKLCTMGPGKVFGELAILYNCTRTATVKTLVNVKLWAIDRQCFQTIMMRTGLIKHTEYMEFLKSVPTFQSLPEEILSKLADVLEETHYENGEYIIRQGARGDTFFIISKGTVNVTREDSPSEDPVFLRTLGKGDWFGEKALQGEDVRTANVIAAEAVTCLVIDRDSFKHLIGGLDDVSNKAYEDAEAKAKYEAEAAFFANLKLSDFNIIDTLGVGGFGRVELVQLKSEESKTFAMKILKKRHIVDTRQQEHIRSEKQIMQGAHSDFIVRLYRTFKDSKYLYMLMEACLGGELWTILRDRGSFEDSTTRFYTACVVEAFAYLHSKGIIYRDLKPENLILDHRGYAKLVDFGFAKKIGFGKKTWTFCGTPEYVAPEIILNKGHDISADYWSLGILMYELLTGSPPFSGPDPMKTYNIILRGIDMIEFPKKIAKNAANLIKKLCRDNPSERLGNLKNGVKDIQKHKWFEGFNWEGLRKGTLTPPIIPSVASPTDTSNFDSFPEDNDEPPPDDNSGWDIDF

Pyk2 (h) (human) = Pyk2 (h) (human) (UniProt Q14289)
Ret (h) (human) = target: T3, Ret (h) (human) (UniProt P07949)
T3 sequence (looked up): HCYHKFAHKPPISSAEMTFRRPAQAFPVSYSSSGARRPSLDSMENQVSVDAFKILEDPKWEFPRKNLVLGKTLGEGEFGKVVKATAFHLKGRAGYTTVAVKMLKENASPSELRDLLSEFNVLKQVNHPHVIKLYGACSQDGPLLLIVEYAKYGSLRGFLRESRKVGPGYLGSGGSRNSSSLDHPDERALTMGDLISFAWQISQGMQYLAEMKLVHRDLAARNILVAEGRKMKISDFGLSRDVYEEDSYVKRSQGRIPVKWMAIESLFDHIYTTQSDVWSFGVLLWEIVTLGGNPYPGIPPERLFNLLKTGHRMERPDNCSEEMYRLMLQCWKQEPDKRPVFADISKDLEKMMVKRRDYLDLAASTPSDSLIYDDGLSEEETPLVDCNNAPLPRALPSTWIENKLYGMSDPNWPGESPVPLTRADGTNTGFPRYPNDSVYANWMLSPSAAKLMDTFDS

Ret(V804M) (h) (human) = target: T4, Ret(V804M) (h) (human) (UniProt P07949)
T4 sequence (looked up): T3 sequence (looked up) with V147M

WNK3 (h) (human) = WNK3 (h) (human) (UniProt Q9BYP7)
cKit (h) (human) = cKit (h) (human) (UniProt P10721)
cKit(D816V) (h) (human) = cKit(D816V) (h) (human) (UniProt P10721)
Sequence of cKit(D816V) (h) (human) (P10721 544-976 D816V): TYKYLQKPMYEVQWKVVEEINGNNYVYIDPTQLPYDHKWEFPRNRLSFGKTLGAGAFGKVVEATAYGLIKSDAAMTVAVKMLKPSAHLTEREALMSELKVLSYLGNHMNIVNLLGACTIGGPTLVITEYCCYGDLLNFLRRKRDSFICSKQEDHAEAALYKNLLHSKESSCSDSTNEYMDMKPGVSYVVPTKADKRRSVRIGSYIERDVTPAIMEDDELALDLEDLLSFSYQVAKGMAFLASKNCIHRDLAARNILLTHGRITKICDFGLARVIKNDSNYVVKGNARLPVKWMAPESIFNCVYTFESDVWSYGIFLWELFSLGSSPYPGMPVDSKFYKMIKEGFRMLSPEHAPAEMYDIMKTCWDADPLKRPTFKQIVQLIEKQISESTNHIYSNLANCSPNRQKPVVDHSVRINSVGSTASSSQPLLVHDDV

Sequence of cKit (h) (human) (P10721 544-976): as the sequence (P10721 544-976 D816V) above, with V273D counted along it
Sequence of Flt4 (h) (human) (P35916 800-1363 limits assumed): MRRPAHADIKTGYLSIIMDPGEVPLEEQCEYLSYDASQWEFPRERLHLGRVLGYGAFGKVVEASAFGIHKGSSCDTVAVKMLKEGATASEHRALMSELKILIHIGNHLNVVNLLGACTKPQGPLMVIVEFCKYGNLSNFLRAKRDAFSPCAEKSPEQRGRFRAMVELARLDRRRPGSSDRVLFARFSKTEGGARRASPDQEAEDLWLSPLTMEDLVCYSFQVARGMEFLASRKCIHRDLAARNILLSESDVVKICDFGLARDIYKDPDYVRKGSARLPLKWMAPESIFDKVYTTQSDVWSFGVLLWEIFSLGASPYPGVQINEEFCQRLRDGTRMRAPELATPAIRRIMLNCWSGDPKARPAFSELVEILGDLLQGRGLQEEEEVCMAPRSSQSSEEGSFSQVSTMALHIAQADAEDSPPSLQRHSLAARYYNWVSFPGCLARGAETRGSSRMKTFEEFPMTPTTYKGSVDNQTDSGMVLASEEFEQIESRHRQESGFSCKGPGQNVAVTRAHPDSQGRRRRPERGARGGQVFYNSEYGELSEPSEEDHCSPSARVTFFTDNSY
Sequence of Abl (Q252H) (h) (human) (P00519 27-1130 Q252H limits assumed): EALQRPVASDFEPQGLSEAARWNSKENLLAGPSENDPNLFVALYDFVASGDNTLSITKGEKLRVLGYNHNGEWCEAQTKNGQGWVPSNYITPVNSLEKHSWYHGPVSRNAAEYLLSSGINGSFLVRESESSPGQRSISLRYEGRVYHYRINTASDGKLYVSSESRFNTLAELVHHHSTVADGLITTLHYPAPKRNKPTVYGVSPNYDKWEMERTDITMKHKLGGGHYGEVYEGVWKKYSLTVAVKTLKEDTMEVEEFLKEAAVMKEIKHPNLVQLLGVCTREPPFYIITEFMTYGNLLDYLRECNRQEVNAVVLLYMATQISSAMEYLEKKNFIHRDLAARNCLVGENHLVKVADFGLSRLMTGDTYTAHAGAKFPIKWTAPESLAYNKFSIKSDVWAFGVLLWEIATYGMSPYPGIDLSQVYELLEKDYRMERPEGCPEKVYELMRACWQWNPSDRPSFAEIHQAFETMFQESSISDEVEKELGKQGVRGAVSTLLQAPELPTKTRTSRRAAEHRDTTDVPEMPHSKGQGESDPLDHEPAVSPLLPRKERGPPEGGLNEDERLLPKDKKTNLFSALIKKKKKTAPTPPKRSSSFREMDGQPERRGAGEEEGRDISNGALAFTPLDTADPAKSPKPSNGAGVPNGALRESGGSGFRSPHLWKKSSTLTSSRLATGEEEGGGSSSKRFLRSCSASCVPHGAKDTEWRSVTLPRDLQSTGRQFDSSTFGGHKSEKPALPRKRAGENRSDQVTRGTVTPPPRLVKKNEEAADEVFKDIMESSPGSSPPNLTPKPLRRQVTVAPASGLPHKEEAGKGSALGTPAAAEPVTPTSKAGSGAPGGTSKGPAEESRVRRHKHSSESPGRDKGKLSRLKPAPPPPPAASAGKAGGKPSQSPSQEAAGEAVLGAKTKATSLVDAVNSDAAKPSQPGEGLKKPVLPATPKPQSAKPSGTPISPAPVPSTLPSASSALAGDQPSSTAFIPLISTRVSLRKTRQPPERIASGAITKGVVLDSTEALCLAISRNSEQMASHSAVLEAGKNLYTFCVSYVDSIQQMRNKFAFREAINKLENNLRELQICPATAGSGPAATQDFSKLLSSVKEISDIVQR
Sequence of CHK2(R145W) (h) (human) (O96017 5-543 R145W limits assumed): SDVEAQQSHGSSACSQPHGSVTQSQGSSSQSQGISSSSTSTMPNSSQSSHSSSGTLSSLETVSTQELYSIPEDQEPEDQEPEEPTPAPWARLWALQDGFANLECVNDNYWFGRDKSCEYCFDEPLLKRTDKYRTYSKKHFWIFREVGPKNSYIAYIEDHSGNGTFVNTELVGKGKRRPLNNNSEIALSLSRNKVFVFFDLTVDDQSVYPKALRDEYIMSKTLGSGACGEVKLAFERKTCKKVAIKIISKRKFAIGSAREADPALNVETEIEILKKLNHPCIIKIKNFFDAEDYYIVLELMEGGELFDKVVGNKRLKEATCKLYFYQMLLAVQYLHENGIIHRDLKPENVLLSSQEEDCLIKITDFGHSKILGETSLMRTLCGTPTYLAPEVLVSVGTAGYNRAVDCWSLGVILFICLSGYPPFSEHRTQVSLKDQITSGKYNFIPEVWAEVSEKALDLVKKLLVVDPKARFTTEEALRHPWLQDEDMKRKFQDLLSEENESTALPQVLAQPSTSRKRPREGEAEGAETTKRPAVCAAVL
Sequence of CaMKIIβ (h) (human) (Q13554 whole entry): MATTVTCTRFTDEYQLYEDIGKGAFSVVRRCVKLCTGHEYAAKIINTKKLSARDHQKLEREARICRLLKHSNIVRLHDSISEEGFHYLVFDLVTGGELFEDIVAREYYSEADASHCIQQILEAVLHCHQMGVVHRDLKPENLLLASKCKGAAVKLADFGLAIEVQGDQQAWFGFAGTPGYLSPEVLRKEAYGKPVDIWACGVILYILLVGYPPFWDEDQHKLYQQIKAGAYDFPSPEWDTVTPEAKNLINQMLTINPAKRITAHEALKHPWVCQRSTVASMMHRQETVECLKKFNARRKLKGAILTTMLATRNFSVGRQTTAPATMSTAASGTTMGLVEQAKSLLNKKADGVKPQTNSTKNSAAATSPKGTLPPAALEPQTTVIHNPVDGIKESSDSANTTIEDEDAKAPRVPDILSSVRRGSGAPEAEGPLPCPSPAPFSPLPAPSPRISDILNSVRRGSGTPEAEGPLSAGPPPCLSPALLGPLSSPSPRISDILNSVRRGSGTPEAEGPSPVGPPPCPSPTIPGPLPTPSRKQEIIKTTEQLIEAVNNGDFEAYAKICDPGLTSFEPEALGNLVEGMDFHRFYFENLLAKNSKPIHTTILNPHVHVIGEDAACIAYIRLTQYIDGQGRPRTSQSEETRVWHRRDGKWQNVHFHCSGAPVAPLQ
Sequence of Abl(Y253F) (h) (human) (P00519 27-1130 Y253F limits assumed): as the sequence (P00519 27-1130 Q252H limits assumed) above, with H226Q, Y227F counted along it

MMI-0300 (peptide)
% activity at 100 µM (ALK (h) (human)): 19% | % activity at 100 µM (AMPKα1 (h) (human)): 71% | % activity at 100 µM (Abl (Q252H) (h) (human)): 82% | % activity at 100 µM (Abl(Y253F) (h) (human)): 86% | % activity at 100 µM (CHK2(R145W) (h) (human)): 33% | % activity at 100 µM (CaMKIIβ (h) (human)): 2% | % activity at 100 µM (Flt4 (h) (human)): 83% | % activity at 100 µM (JNK1α1 (h) (human)): 97% | % activity at 100 µM (JNK3 (h) (human)): 89% | % activity at 100 µM (PKCε (h) (human)): 79% | % activity at 100 µM (PKCζ (h) (human)): 81% | % activity at 100 µM (PKG1β (h) (human)): 50% | % activity at 100 µM (Pyk2 (h) (human)): 47% | % activity at 100 µM (Ret (h) (human)): 140% | % activity at 100 µM (Ret(V804M) (h) (human)): 95% | % activity at 100 µM (WNK3 (h) (human)): 77% | % activity at 100 µM (cKit (h) (human)): 53% | % activity at 100 µM (cKit(D816V) (h) (human)): 60%
